Legend:
[1] = molecular target: β-amyloid peptide (1-42) conjugated to BSA (Aβ1-42-Cys-BSA conjugate) (bovine); experiment: competitive ELISA on Aβ1-42-BSA against biotinylated Mu266 (0.3 µg/ml), second set of three experiments
[2] = molecular target: β-amyloid peptide (1-42) conjugated to BSA (Aβ1-42-Cys-BSA conjugate) (bovine); experiment: competitive ELISA on Aβ1-42-BSA against biotinylated Mu266 (0.3 µg/ml), first set of three experiments
Aβ 1-40 peptide (human) = experiment: KinExA 3000 equilibrium analysis, 37 C, Fab with serially diluted human soluble Abeta (1-40)
[3] = molecular target: T1, β-amyloid peptide (1-42) conjugated to BSA (Aβ1-42-Cys-BSA conjugate) (bovine, maleimide-activated; Cys43 coupled to maleimide-activated bovine serum albumin); experiment: competitive ELISA on Aβ1-42-BSA against biotinylated Mu266 (0.3 µg/ml), second set of three experiments
T1 construct: Coated on ELISA plates at 10 µg/mL; also called Aβ1-42-BSA conjugate; Aβ1-42-Cys43
Method: (§1) The Aβ142-BSA conjugate was prepared by dissolving 7.5 mg of Aβ₁₋₄₂-Cys₄₃ (C-terminal cysteine Aβ₁₋₄₂, AnaSpec) in 500 μL of dimethylsulfoxide, and then immediately adding 1,500 μL of distilled water. Two (2) milligrams of maleimide-activated bovine serum albumin (Pierce) was dissolved in 200 μL of distilled water. The two solutions were combined, thoroughly mixed, and allowed to stand at room temperature for two (2) hours. A gel chromatography column was used to separate unreacted peptide from Aβ₁₋₄₂-Cys-BSA conjugate.
(§2) After washing the wells with phosphate buffered saline (PBS) containing 0.1% Tween 20 (Washing Buffer) using an ELISA plate washer, the wells were blocked by adding 300 μL of SuperBlock reagent (Pierce) per well. After 30 minutes of blocking, the wells were washed Washing Buffer and excess liquid was removed.
(§3) As a background control, 100 μl of ELISA Buffer was added. The ELISA plate was incubated at room temperature for 90 min. After washing the wells with Washing Buffer, 100 μl of 1 μg/ml HRP-conjugated streptavidin (Cat #21124, Pierce) was added to each well. […] Absorbance was read at 415 nm. The absorbances were plotted against the log of the competitor concentration, curves were fit to the data points (using Prism) and the IC50 was determined for each antibody using methods well-known in the art.

[4] = molecular target: T1, β-amyloid peptide (1-42) conjugated to …; experiment: competitive ELISA on Aβ1-42-BSA against biotinylated Mu266 (0.3 µg/ml), first set of three experiments
Method: as §1, §2, §3

## Mouse monoclonal antibody 266 (Mu266)
[1]
  IC50: 3.87 µg/mL
[2]
  IC50: 4.7 µg/mL

## m266-Fab (Fab fragment of murine monoclonal antibody 266)
Aβ 1-40 peptide (human)
  Kd: 0.24 nM

B1: humanized 266 antibody (Hu266) (antibody, human IgG1, kappa, V domains shown)
VH: EVQLVESGGGLVQPGGSLRLSCAASGFTFSRYSMSWVRQAPGKGLELVAQINSVGNSTYYPDTVKGRFTISRDNAKNTLYLQMNSLRAEDTAVYYCASGDYWGQGTLVTVSS
VL: DVVMTQSPLSLPVTLGQPASISCRSSQSLIYSDGNAYLHWFLQKPGQSPRLLIYKVSNRFSGVPDRFSGSGSGTDFTLKISRVEAEDVGVYYCSQSTHVPWTFGQGTKVEIKR
notes: Mature antibody expressed from pVk-Hu266 and pVg1-Hu266 in Sp2/0 cells; also called exemplified anti-Aβ antibody
[3]
  IC50: 4 µg/mL
[4]
  IC50: 7.5 µg/mL

— patent US20210301003A1 (Eli Lilly, published 2021)
